Sequences and labels used below:
B1: Rad24 (natural protein)
chain: MDSTNLNKRPLLQYSLSSLGSQITKWSSSRPTSPVRKARSTENDFLSKQDTSSILPSINDDGGEQWYEKFKPNCLEQVAIHKRKLKDVQEALDAMFLPNAKHRILLLSGPSGCSKSTVIKELSKILVPKYRQNSNGTSFRSTPNEHKVTEFRGDCIVNDLPQMESFSEFLKGARYLVMSNLSLILIEDLPNVFHIDTRRRFQQLILQWLYSSEPLLPPLVICITECEIPENDNNYRKFGIDYTFSAETIMNKEILMHPRLKRIKFNPINSTLLKKHLKFICVQNMKMLKEKNKWNKRQEVIDYIAQETGDIRSAITTLQFWATSSGSLPISTRESTISYFHAIGKVIHGSHSTNNDNEMINNLFENSNNLLSKEDFKLGILENYNTFNKGEFSISDASSIVDCLSECDNMNGLPESNEYGLREVRKTFRNISKQGHNHGTVYFPREWKVRKLQNSFKVQAEDWLNVSLYKYNAVHSFRNITLEFGYYAPLIRKCQSYKKKYILYYLKNLPSGSSGPKQTMDKFSDIMKVENGIDVVDRIGGPIEALSVEDGLAPLMDNDSNNCDHLEDQKKERDRRLRMLIDQYERNVMMANDDLEDEETSFNDDPIVDSDSDNSNNIGNETFGRSDEDESLCEILSQRQPRKAPVISESLSDSDLEIL

Assay [1] deals with T1, 9-1-1 clamp (Ddc1–Mec3–Rad17) (S. cerevisiae, UniProt Q08949;Q02574;P48581).
T1 sequence 1: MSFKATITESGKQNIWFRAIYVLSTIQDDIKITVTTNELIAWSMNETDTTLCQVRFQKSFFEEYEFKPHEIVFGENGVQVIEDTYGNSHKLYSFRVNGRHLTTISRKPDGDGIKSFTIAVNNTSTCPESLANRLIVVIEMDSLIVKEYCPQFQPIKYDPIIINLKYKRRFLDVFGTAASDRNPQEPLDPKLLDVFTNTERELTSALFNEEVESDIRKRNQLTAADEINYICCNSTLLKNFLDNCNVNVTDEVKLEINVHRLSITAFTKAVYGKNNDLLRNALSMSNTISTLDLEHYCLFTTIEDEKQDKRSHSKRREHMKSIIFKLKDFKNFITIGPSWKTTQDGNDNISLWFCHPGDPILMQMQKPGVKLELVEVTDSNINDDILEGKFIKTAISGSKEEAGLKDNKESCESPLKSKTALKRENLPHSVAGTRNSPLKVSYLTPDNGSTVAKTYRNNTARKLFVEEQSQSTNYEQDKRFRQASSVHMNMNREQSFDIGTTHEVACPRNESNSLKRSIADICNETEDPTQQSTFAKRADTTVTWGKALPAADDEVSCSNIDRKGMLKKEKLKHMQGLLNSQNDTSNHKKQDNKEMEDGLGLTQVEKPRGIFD
T1 sequence 2: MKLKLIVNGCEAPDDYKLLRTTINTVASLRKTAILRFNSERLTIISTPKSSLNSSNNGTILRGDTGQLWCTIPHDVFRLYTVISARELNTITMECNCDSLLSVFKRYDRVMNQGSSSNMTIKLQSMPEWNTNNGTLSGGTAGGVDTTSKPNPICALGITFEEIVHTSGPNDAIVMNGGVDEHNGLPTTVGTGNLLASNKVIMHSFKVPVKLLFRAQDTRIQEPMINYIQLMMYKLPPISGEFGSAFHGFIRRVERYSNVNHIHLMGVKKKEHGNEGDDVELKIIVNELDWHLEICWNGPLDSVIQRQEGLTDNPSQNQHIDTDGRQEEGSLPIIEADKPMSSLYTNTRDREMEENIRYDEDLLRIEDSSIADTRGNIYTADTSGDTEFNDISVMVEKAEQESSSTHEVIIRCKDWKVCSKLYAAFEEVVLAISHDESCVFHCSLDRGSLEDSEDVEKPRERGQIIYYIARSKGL
T1 sequence 3: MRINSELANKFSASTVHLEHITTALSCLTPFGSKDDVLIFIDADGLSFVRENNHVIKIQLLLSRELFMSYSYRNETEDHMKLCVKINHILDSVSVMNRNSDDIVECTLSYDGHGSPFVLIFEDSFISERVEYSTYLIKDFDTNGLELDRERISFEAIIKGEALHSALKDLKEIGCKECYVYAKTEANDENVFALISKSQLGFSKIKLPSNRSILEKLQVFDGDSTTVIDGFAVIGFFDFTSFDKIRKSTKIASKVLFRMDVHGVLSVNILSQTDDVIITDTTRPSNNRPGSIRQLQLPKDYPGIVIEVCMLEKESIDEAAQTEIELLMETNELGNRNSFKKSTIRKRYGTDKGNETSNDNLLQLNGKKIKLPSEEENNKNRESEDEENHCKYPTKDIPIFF
As to the kind of experiment: cryo-EM structure.

For the assay “Rad24”, the target named is B1. As to the kind of experiment: cryo-EM structure.

For the molecule B1, the binding result in assay [1] was “binds”.

B2: Rfc5 (natural protein)
chain: MSLWVDKYRPKSLNALSHNEELTNFLKSLSDQPRDLPHLLLYGPNGTGKKTRCMALLESIFGPGVYRLKIDVRQFVTASNRKLELNVVSSPYHLEITPSDMGNNDRIVIQELLKEVAQMEQVDFQDSKDGLAHRYKCVIINEANSLTKDAQAALRRTMEKYSKNIRLIMVCDSMSPIIAPIKSRCLLIRCPAPSDSEISTILSDVVTNERIQLETKDILKRIAQASNGNLRVSLLMLESMALNNELALKSSSPIIKPDWIIVIHKLTRKIVKERSVNSLIECRAVLYDLLAHCIPANIILKELTFSLLDVETLNTTNKSSIIEYSSVFDERLSLGNKAIFHLEGFIAKVMCCLD
As for B2, the binding result (in assay [1]; with Rad24) was “binds” throughout.

(Values after doi:10.1101/2021.10.01.462756 (bioRxiv, 2021).)
